From patent publication US20210061879A1

Legend:
[1] = target: HER2 on cancer cells (MCF7, SKBR3, BT474, SKOV3, OVCAR3) (human) (UniProt P04626); test: cell-based or functional assay
[2] = target: HER2 on cancer cells (MCF7, SKBR3, BT474, SKOV3, OVCAR3) (human) (UniProt P04626); test: flow cytometry on OVCAR3 cells; retelling of FIG. 16 with a different last digit (1436 there)
[3] = target: HER2 on cancer cells (MCF7, SKBR3, BT474, SKOV3, OVCAR3) (human) (UniProt P04626); test: flow cytometry, 100 nM memAb trastuzumab on MCF7 cells, secondary anti-kappa-647 (secondary alone: 338)
[4] = target: HER2 on cancer cells (MCF7, SKBR3, BT474, SKOV3, OVCAR3) (human) (UniProt P04626); test: flow cytometry, 100 nM memAb trastuzumab on BT474 cells, secondary anti-kappa-647 (secondary alone: 392)
[5] = target: HER2 on cancer cells (MCF7, SKBR3, BT474, SKOV3, OVCAR3) (human) (UniProt P04626); test: flow cytometry, 100 nM memAb trastuzumab on SKBR3 cells, secondary anti-kappa-647 (secondary alone: 330)
[6] = target: HER2 on cancer cells (MCF7, SKBR3, BT474, SKOV3, OVCAR3) (human) (UniProt P04626); test: flow cytometry, 100 nM memAb trastuzumab on SKOV3 cells, secondary anti-kappa-647 (secondary alone: 370)
[7] = target: HER2 on cancer cells (MCF7, SKBR3, BT474, SKOV3, OVCAR3) (human) (UniProt P04626); test: flow cytometry, 100 nM memAb trastuzumab on OVCAR3 cells, secondary anti-kappa-647 (secondary alone: 307)

EC50 of Jurkat-NFAT-Luc meditope-CAR cell activation (luminescence), co-culture with BT474 [1]: 0.26 nM
EC50 of Jurkat-NFAT-Luc meditope-CAR cell activation (luminescence), co-culture with MCF7 [1]: 0.42 nM
EC50 of Jurkat-NFAT-Luc meditope-CAR cell activation (luminescence), co-culture with SKBR3 [1]: 0.83 nM
EC50 of Jurkat-NFAT-Luc meditope-CAR cell activation (luminescence), co-culture with SKOV3 [1]: 0.35 nM
MFI [2]: 1440
median fluorescence intensity (MFI) [3]: 985
median fluorescence intensity (MFI) [4]: 31700
median fluorescence intensity (MFI) [5]: 34400
median fluorescence intensity (MFI) [6]: 43200
median fluorescence intensity (MFI) [7]: 1440
Substance: meditope-enabled I83E trastuzumab IgG (antibody)
IC50 of cancer cell viability, BT474 co-incubated with memAb trastuzumab and FabRack T cells, 3 days [1]: 0.33 nM
IC50 of cancer cell viability, MCF7 co-incubated with memAb trastuzumab and FabRack T cells, 3 days [1]: 0.069 nM
IC50 of cancer cell viability, SKBR3 co-incubated with memAb trastuzumab and FabRack T cells, 3 days [1]: 0.11 nM
IC50 of cancer cell viability, SKOV3 co-incubated with memAb trastuzumab and FabRack T cells, 3 days [1]: 0.046 nM
